Measurements: IntAct's records for PubMed 19696784

B1: Microtubule protein alp7 (Schizosaccharomyces pombe (strain ATCC 38366 / 972)), Q9URY2 (parent)
chain: MSDIVSSSTDYSRRSPSSSSIGTNETDHTGFHEKRQGASSESLIPPAQRSSEESMPAPKLFPKLTSKPNPQLNLKDTLNKRVSDRLQALELNKSFDFSGTPRPMHPISHPLSQHKTPEFKHRKRNVESILTPKNPSLFSSSNAASQRGSLNTAPSNFAYSHSSSLQTSASSRPPVLSNGSFPRQTNTAPLNPPVHLKDNIRNSATPSTSQADIPTQYPINSTQKQQAKYEAEIEGYKAKLAGTYHEISVLQNTIVNVSGQLIAVNDQLQQLRSGKASTSPSTKDTNMRLVEGHNEETLALQRGKYTQEEVDKLIQERMEKVAEDLHAQYSAKHTQKINAFKANYARKYEATIQELQNQIGTAPNAPKISNSNWEEERRALKADNQTLQKQLEKAIQERQDMSDFLNNFKADMAKSDKLLMQQQSQQTGDLETLRLQLQALQEELRVEREERQQLIQMSEDLVIAMDQLNLEQKS
partner: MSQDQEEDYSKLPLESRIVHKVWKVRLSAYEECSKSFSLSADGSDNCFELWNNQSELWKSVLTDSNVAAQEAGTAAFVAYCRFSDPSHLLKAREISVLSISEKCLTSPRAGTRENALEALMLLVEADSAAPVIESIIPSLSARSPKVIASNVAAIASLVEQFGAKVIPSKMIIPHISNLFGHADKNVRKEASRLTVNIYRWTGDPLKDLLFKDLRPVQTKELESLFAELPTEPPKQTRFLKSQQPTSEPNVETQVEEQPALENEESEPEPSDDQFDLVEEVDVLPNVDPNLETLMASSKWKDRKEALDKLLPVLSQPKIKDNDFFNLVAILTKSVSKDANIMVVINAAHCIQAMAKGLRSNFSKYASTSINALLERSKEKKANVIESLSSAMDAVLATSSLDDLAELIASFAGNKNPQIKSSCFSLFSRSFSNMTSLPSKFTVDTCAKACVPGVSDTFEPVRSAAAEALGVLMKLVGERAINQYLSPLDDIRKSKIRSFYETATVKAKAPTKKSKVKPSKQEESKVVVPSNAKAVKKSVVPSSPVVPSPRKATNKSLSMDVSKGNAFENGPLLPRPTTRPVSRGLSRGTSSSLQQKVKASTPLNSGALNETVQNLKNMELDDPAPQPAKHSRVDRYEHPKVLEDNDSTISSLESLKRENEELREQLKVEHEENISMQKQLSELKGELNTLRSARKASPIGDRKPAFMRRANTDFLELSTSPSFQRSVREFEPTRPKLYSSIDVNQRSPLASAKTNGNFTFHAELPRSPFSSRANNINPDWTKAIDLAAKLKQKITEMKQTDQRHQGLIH

Variants of: B1
Details: with alp14_schpo alp14, O94534

Variant | effect of a mutation on the interaction
MSDIVSSSTDYSRRSPSSSSIGTNETDHTGFHEKRQGASSESLIPPAQRSSEESMPAPKLFPKLTSKPNPQLNLKDTLNKRVSDRLQALELNKSFDFSGTPRPMHPISHPLSQHKTPEFKHRKRNVESILTPKNPSLFSSSNAASQRGSLNTAPSNFAYSHSSSLQTSASSRPPVLSNGSFPRQTNTAPLNPPVHLKDNIRNSATPSTSQADIPTQYPINSTQKQQAKYEAEIEGYKAKLAGTYHEISVLQNTIVNVSGQLIAVNDQLQQLRSGKASTSPSTKDTNMRLVEGHNEETLALQRGKYTQEEVDKLIQERMEKVAEDLHAQYSAKHTQKINAFKANYARKYEATIQELQNQIGTAPNAPKISNSNWEEERRALKADNQTLQKQLEKAIQERQDMSDFLNNFKADMAKSDKLLMQQQSQQTGDLETLRLQLQALQEELRVEREERQQLIQMSEDAVIAMDQLNLEQKS [L461A] | disrupting interaction
